# Data as given in the Human Domainome abundance scans (Beltran et al. 2025).
# ± gives the uncertainty stated by the source.
# Experiment: abundance fitness (aPCA) (normalised: wild type 0, dead -1); higher = more abundant; growth selection in yeast, the domain comes from the species named
# Details: Homo sapiens
row,Substance,abundance fitness
1,"Scaffold attachment factor B1 R35D, Q15424",-0.12 ± 0.08
2,"Scaffold attachment factor B1 R35E, Q15424",-0.195 ± 0.083
3,"Scaffold attachment factor B1 R35F, Q15424",-0.59 ± 0.082
4,"Scaffold attachment factor B1 R35H, Q15424",-0.475 ± 0.089
5,"Scaffold attachment factor B1 R35I, Q15424",-0.556 ± 0.08
6,"Scaffold attachment factor B1 R35K, Q15424",-0.217 ± 0.083
7,"Scaffold attachment factor B1 R35L, Q15424",-0.316 ± 0.063
8,"Scaffold attachment factor B1 R35M, Q15424",-0.147 ± 0.072
9,"Scaffold attachment factor B1 R35P, Q15424",-0.288 ± 0.081
10,"Scaffold attachment factor B1 R35Q, Q15424",-0.136 ± 0.077
11,"Scaffold attachment factor B1 R35S, Q15424",-0.136 ± 0.068
12,"Scaffold attachment factor B1 R35T, Q15424",0.014 ± 0.064
13,"Scaffold attachment factor B1 R35V, Q15424",-0.28 ± 0.054
14,"Scaffold attachment factor B1 R35W, Q15424",-0.645 ± 0.079
15,"Scaffold attachment factor B1 R40A, Q15424",-0.272 ± 0.065
16,"Scaffold attachment factor B1 R40C, Q15424",-0.642 ± 0.085
17,"Scaffold attachment factor B1 R40D, Q15424",-0.642 ± 0.096
18,"Scaffold attachment factor B1 R40F, Q15424",-0.822 ± 0.08
19,"Scaffold attachment factor B1 R40G, Q15424",-0.732 ± 0.056
20,"Scaffold attachment factor B1 R40I, Q15424",-0.179 ± 0.07
21,"Scaffold attachment factor B1 R40K, Q15424",-0.416 ± 0.079
22,"Scaffold attachment factor B1 R40L, Q15424",-0.219 ± 0.055

row,Substance,abundance fitness
1,"Scaffold attachment factor B1 R40M, Q15424",-0.329 ± 0.075
2,"Scaffold attachment factor B1 R40N, Q15424",-0.786 ± 0.12
3,"Scaffold attachment factor B1 R40P, Q15424",-0.763 ± 0.074
4,"Scaffold attachment factor B1 R40Q, Q15424",-0.152 ± 0.06
5,"Scaffold attachment factor B1 R40S, Q15424",-0.353 ± 0.062
6,"Scaffold attachment factor B1 R40T, Q15424",-0.319 ± 0.073
7,"Scaffold attachment factor B1 R40V, Q15424",-0.123 ± 0.067
8,"Scaffold attachment factor B1 R40Y, Q15424",-0.549 ± 0.077
9,"Scaffold attachment factor B1 R44A, Q15424",-0.029 ± 0.061
10,"Scaffold attachment factor B1 R44D, Q15424",-0.156 ± 0.1
11,"Scaffold attachment factor B1 R44E, Q15424",-0.121 ± 0.091
12,"Scaffold attachment factor B1 R44F, Q15424",-0.27 ± 0.081
13,"Scaffold attachment factor B1 R44G, Q15424",-0.096 ± 0.064
14,"Scaffold attachment factor B1 R44H, Q15424",-0.202 ± 0.072
15,"Scaffold attachment factor B1 R44I, Q15424",-0.13 ± 0.071
16,"Scaffold attachment factor B1 R44L, Q15424",-0.107 ± 0.053
17,"Scaffold attachment factor B1 R44P, Q15424",-0.715 ± 0.075
18,"Scaffold attachment factor B1 R44Q, Q15424",-0.074 ± 0.071
19,"Scaffold attachment factor B1 R44S, Q15424",-0.096 ± 0.065
20,"Scaffold attachment factor B1 R44T, Q15424",-0.024 ± 0.062
21,"Scaffold attachment factor B1 R44V, Q15424",-0.092 ± 0.054
22,"Scaffold attachment factor B1 R46A, Q15424",-0.745 ± 0.069

row,Substance,abundance fitness
1,"Scaffold attachment factor B1 R46C, Q15424",-0.445 ± 0.1
2,"Scaffold attachment factor B1 R46D, Q15424",-0.832 ± 0.071
3,"Scaffold attachment factor B1 R46E, Q15424",-0.954 ± 0.1
4,"Scaffold attachment factor B1 R46F, Q15424",-0.545 ± 0.069
5,"Scaffold attachment factor B1 R46G, Q15424",-0.84 ± 0.053
6,"Scaffold attachment factor B1 R46H, Q15424",-0.423 ± 0.12
7,"Scaffold attachment factor B1 R46I, Q15424",-0.642 ± 0.072
8,"Scaffold attachment factor B1 R46K, Q15424",-0.602 ± 0.11
9,"Scaffold attachment factor B1 R46L, Q15424",-0.491 ± 0.063
10,"Scaffold attachment factor B1 R46M, Q15424",-0.384 ± 0.1
11,"Scaffold attachment factor B1 R46N, Q15424",-0.819 ± 0.15
12,"Scaffold attachment factor B1 R46P, Q15424",-0.937 ± 0.12
13,"Scaffold attachment factor B1 R46Q, Q15424",-0.734 ± 0.089
14,"Scaffold attachment factor B1 R46S, Q15424",-0.763 ± 0.068
15,"Scaffold attachment factor B1 R46T, Q15424",-0.845 ± 0.11
16,"Scaffold attachment factor B1 R46V, Q15424",-0.797 ± 0.074
17,"Scaffold attachment factor B1 R46W, Q15424",-0.8 ± 0.062
18,"Scaffold attachment factor B1 R46Y, Q15424",-0.463 ± 0.064
19,"Scaffold attachment factor B1 R60A, Q15424",-0.22 ± 0.054
20,"Scaffold attachment factor B1 R60C, Q15424",-0.676 ± 0.1
21,"Scaffold attachment factor B1 R60D, Q15424",-0.659 ± 0.13
22,"Scaffold attachment factor B1 R60E, Q15424",-0.551 ± 0.089

row,Substance,abundance fitness
1,"Scaffold attachment factor B1 R60F, Q15424",-0.801 ± 0.053
2,"Scaffold attachment factor B1 R60G, Q15424",-0.464 ± 0.075
3,"Scaffold attachment factor B1 R60I, Q15424",-0.551 ± 0.11
4,"Scaffold attachment factor B1 R60K, Q15424",-0.099 ± 0.065
5,"Scaffold attachment factor B1 R60L, Q15424",-0.335 ± 0.053
6,"Scaffold attachment factor B1 R60M, Q15424",-0.38 ± 0.065
7,"Scaffold attachment factor B1 R60N, Q15424",-0.326 ± 0.11
8,"Scaffold attachment factor B1 R60P, Q15424",-0.492 ± 0.072
9,"Scaffold attachment factor B1 R60Q, Q15424",-0.445 ± 0.081
10,"Scaffold attachment factor B1 R60S, Q15424",-0.321 ± 0.076
11,"Scaffold attachment factor B1 R60T, Q15424",-0.268 ± 0.081
12,"Scaffold attachment factor B1 R60V, Q15424",-0.432 ± 0.069
13,"Scaffold attachment factor B1 R60W, Q15424",-1.17 ± 0.065
14,"Scaffold attachment factor B1 R60Y, Q15424",-0.642 ± 0.11
15,"Scaffold attachment factor B1 S32C, Q15424",-0.32 ± 0.077
16,"Scaffold attachment factor B1 S32D, Q15424",-0.236 ± 0.088
17,"Scaffold attachment factor B1 S32E, Q15424",-0.419 ± 0.11
18,"Scaffold attachment factor B1 S32F, Q15424",-0.344 ± 0.083
19,"Scaffold attachment factor B1 S32G, Q15424",-0.235 ± 0.064
20,"Scaffold attachment factor B1 S32H, Q15424",-0.493 ± 0.1
21,"Scaffold attachment factor B1 S32K, Q15424",-0.173 ± 0.088
22,"Scaffold attachment factor B1 S32L, Q15424",-0.294 ± 0.071

row,Substance,abundance fitness
1,"Scaffold attachment factor B1 S32M, Q15424",-0.21 ± 0.067
2,"Scaffold attachment factor B1 S32N, Q15424",-0.59 ± 0.1
3,"Scaffold attachment factor B1 S32P, Q15424",-0.514 ± 0.083
4,"Scaffold attachment factor B1 S32R, Q15424",-0.114 ± 0.057
5,"Scaffold attachment factor B1 S32T, Q15424",-0.217 ± 0.089
6,"Scaffold attachment factor B1 S32V, Q15424",-0.174 ± 0.059
7,"Scaffold attachment factor B1 S32W, Q15424",-0.419 ± 0.053
8,"Scaffold attachment factor B1 S32Y, Q15424",-0.331 ± 0.082
9,"Scaffold attachment factor B1 S50A, Q15424",-0.2 ± 0.062
10,"Scaffold attachment factor B1 S50C, Q15424",-0.226 ± 0.072
11,"Scaffold attachment factor B1 S50E, Q15424",-0.278 ± 0.078
12,"Scaffold attachment factor B1 S50F, Q15424",-0.259 ± 0.08
13,"Scaffold attachment factor B1 S50G, Q15424",-0.257 ± 0.063
14,"Scaffold attachment factor B1 S50H, Q15424",-0.099 ± 0.072
15,"Scaffold attachment factor B1 S50I, Q15424",-0.292 ± 0.096
16,"Scaffold attachment factor B1 S50K, Q15424",-0.558 ± 0.11
17,"Scaffold attachment factor B1 S50L, Q15424",-0.234 ± 0.058
18,"Scaffold attachment factor B1 S50M, Q15424",-0.302 ± 0.097
19,"Scaffold attachment factor B1 S50N, Q15424",-0.316 ± 0.091
20,"Scaffold attachment factor B1 S50P, Q15424",-0.191 ± 0.058
21,"Scaffold attachment factor B1 S50Q, Q15424",-0.166 ± 0.086
22,"Scaffold attachment factor B1 S50R, Q15424",-0.365 ± 0.06
